The text below walks through data of PMC7888582 (Protein Science : A Publication of the Protein Society, 2021).

Assay in all cases: SEC
The target in series [1] is GGGPS of Nitrososphaera viennensis (nvGGGPS) (Nitrososphaera viennensis).
The target of series [2] is mtGGGPS_W141A (Methanothermobacter thermautotrophicus).
In series [3] the target is mtGGGPS_W141H (Methanothermobacter thermautotrophicus).
The series “SEC” concerns the molecule itself.

In general, stoichiometry N refers to a count of units in the complex or per binding partner.

The molecule “GGGPS of Nitrososphaera viennensis (nvGGGPS) (enzyme)” yielded a stoichiometry N in series [1] of 6.

mtGGGPS_W141A (enzyme) registered a stoichiometry N in series [2] of 2.

mtGGGPS_W141H (enzyme) had a stoichiometry N in series [3] of 6.

B1: wild-type Methanothermobacter thermautotrophicus GGGPS (mtGGGPS) (enzyme)
chain: MKVEDYFHDILRERKIHLTLIDPEEQTPEEAVEIARAAIRGGTDGIMLGGSTTDSSELDNTARALRENIDVPIILFPGNTTGVSRYADAIFFMSLLNSTNPYWIIGAQALGAATVKKMGIEALPMGYLVVEPGGTVGWVGDTKPVPRNKPDIAAAYAMAAEFLGMRLFYLEAGSGAPEHVPEEMIALVKRCTDQILIVGGGIRSGEDAARVAGAGADVVVTGTVVENSDNVEDKIREIVEGMGSV
Take B1: the “stoichiometry N” value in the series “SEC” was determined as 6.
